Data on 30 molecules can be found in patent US20180273635A1 (Zymeworks, published 2018).

Positions count from the first letter of the chain named. Numbers in names are those of the source.

The chains are these.
B1: variant 12498 (antibody, human IgG1, kappa)
heavy: EVQLVESGGGLVQPGGSLRLSCAASGFTFTDYTMDWVRQAPGKGLEWVADVNPNSGGSIYNKRFKGRFTLSVDRSKNTLYLQMNSLRAEDTAVYYCARNLGPSFYFDYWGQGTLVTVSSASTKGPSVFPLAPSSKSTSGGTAALGCLVKDYFPEPVTVSWNSGALTSGVHTFPAVLQSSGLYSLSSVVTVPSSSLGTQTYICNVNHKPSNTKVDKKVEPKSCDKTHTCPPCPAPELLGGPSVFLFPPKPKDTLMISRTPEVTCVVVDVSHEDPEVKFNWYVDGVEVHNAKTKPREEQYNSTYRVVSVLTVLHQDWLNGKEYKCKVSNKALPAPIEKTISKAKGQPREPQVYVYPPSRDELTKNQVSLTCLVKGFYPSDIAVEWESNGQPENNYKTTPPVLDSDGSFALVSKLTVDKSRWQQGNVFSCSVMHEALHNHYTQKSLSLSPG
light: not shown
chain: not shown
notes: OA pertuzumab variant, HC Q61K (Kabat); also called v12498
B2: variant 14064 (antibody, human IgG1, kappa)
heavy: B1 heavy with K62Q, K76A
light: not shown
chain: not shown
notes: OA pertuzumab variant, HC K75A (Kabat); also called v14064
B3: variant 12526 (antibody, human IgG1, kappa)
heavy: B1 heavy with G57M, I59Y, K62Q
light: not shown
chain: not shown
notes: also called v12526
B4: variant 12541 (antibody, human IgG1, kappa)
heavy: B1 heavy with K62Q
light: not shown
chain: not shown
notes: OA pertuzumab variant, LC Y96L (Kabat); also called v12541
B5: variant 12500 (antibody, human IgG1, kappa)
heavy: B1 heavy with K62Q, S75Y
light: not shown
chain: not shown
notes: OA pertuzumab variant, HC S74Y (Kabat); also called v12500
B6: variant 12545 (antibody, human IgG1, kappa)
heavy: B1 heavy with K62R
light: not shown
chain: not shown
notes: OA pertuzumab variant, HC Q61R, LC Y94K (Kabat); also called v12545
B7: variant 14065 (antibody, human IgG1, kappa)
heavy: B1 heavy with K62Q, K76I
light: not shown
chain: not shown
notes: OA pertuzumab variant, HC K75I (Kabat); also called v14065
B8: variant 12535 (antibody, human IgG1, kappa)
heavy: B1 heavy with K62Q
light: DIQMTQSPSSLSASVGDRVTITCKASQDVSIGVAWYQQKPGKAPKLLIYSASYRYTGVPSRFSGSGSGTDFTLTISSLQPEDFATYYCQQNYIYPYTFGQGTKVEIKRTVAAPSVFIFPPSDEQLKSGTASVVCLLNNFYPREAKVQWKVDNALQSGNSQESVTEQDSKDSTYSLSSTLTLSKADYEKHKVYACEVTHQGLSSPVTKSFNRGEC
chain: not shown
notes: OA pertuzumab variant, LC Y91N (Kabat); also called v12535
B9: variant 12499 (antibody, human IgG1, kappa)
heavy: B1 heavy with K62Q, S75D
light: not shown
chain: not shown
notes: OA pertuzumab variant, HC S74D (Kabat); also called v12499
B10: variant 12539 (antibody, human IgG1, kappa)
heavy: B1 heavy with K62Q
light: B8 light with N91T
chain: not shown
notes: OA pertuzumab variant, LC Y91T (Kabat); also called v12539
B11: variant 12518 (antibody, human IgG1, kappa)
heavy: B1 heavy with T30R, G57R, K62Q
light: not shown
chain: not shown
notes: also called v12518
B12: variant 14067 (antibody, human IgG1, kappa)
heavy: B1 heavy with K62Q, K76Y
light: not shown
chain: not shown
notes: OA pertuzumab variant, HC K75Y (Kabat); also called v14067
B13: variant 12537 (antibody, human IgG1, kappa)
heavy: B1 heavy with K62Q
light: not shown
chain: not shown
notes: OA pertuzumab variant, LC Y96M (Kabat); also called v12537
B14: variant 12546 (antibody, human IgG1, kappa)
heavy: B1 heavy with K62R
light: B8 light with D1N, N91Y
chain: not shown
notes: OA pertuzumab variant, HC Q61R, LC D1N (Kabat); also called v12546
B15: variant 12542 (antibody, human IgG1, kappa)
heavy: B1 heavy with K62Q, F64G
light: not shown
chain: not shown
notes: OA pertuzumab variant, HC F63G (Kabat); also called v12542
B16: variant 14066 (antibody, human IgG1, kappa)
heavy: B1 heavy with K62Q, K76V
light: not shown
chain: not shown
notes: OA pertuzumab variant, HC K75V (Kabat); also called v14066
B17: variant 12515 (antibody, human IgG1, kappa)
heavy: B1 heavy with K62Q
light: B8 light with T56W, N91Y
chain: not shown
notes: OA pertuzumab variant, LC T56W (Kabat); also called v12515
B18: variant 12501 (antibody, human IgG1, kappa)
heavy: B1 heavy with K62Q, S75E
light: not shown
chain: not shown
notes: OA pertuzumab variant, HC S74E (Kabat); also called v12501
B19: variant 12543 (antibody, human IgG1, kappa)
heavy: B1 heavy with K62Q, F64L
light: not shown
chain: not shown
notes: OA pertuzumab variant, HC F63L (Kabat); also called v12543
B20: Variant 14030 (antibody, human IgG1, kappa)
heavy: B1 heavy with K62Q, S75W
light: not shown
chain: not shown
notes: OA (one-armed) format; clones 7840, 7919, 4372; also called v14030
B21: Variant 14027 (antibody, human IgG1, kappa)
heavy: B1 heavy with K62Q, K76W
light: not shown
chain: not shown
notes: OA (one-armed) format; clones 7844, 7917, 4372; also called v14027
B22: Variant 14028 (antibody, human IgG1, kappa)
heavy: B1 heavy with T30Y, K62Q, K76W
light: not shown
chain: not shown
notes: OA (one-armed) format; clones 8776, 1811, 4372; also called v14028
B23: Variant 14031 (antibody, human IgG1, kappa)
heavy: B1 heavy with T30Q, K62Q, S75W
light: not shown
chain: not shown
notes: OA (one-armed) format; clones 8778, 1811, 4372; also called v14031
B24: Variant 14026 (antibody, human IgG1, kappa)
heavy: B1 heavy with K62Q, K76W, S103W
light: not shown
chain: not shown
notes: OA (one-armed) format; clones 8774, 1811, 4372; also called v14026
B25: Variant 14035 (antibody, human IgG1, kappa)
heavy: B1 heavy with T30Q, K62Q
light: not shown
chain: not shown
notes: OA (one-armed) format; clones 7815, 7917, 4372; also called v14035
B26: Variant 14033 (antibody, human IgG1, kappa)
heavy: B1 heavy with K62Q, S75W, K76E
light: not shown
chain: not shown
notes: OA (one-armed) format; clones 8779, 1811, 4372; also called v14033
B27: Variant 14038 (antibody, human IgG1, kappa)
heavy: B1 heavy with T30Q, K62Q, K76E
light: not shown
chain: not shown
notes: OA (one-armed) format; clones 8782, 1811, 4372; also called v14038
B28: Variant 14029 (antibody, human IgG1, kappa)
heavy: B1 heavy with G57Y, K62Q, K76W
light: not shown
chain: not shown
notes: OA (one-armed) format; clones 8777, 1811, 4372; also called v14029
B29: Variant 14034 (antibody, human IgG1, kappa)
heavy: B1 heavy with K62Q
light: not shown
chain: not shown
notes: OA (one-armed) format; clones 3057, 8781, 4372; also called v14034
B30: Variant 14037 (antibody, human IgG1, kappa)
heavy: B1 heavy with K62Q, K76E
light: not shown
chain: not shown
notes: OA (one-armed) format; clones 7843, 7919, 4372; also called v14037

One assay addresses T1, Recombinant human HER2 (human, UniProt P04626 23-652).
T1 construct: extracellular domain; analyte of the SPR assays; also called HER2 ECD; ECD2 of HER2
Kind of assay: SPR, pre-SEC; ratio to WT v10013. (Surface plasmon resonance follows binding to a sensor surface in real time, without labels.)
Protocol: (§1) The affinity towards HER2 ECD of the samples was measured by SPR on a Biacore T200 as follows. Between 2000 and 4000 RU of anti-human Fc injected at concentration between 5 and 10 μg/ml was immobilized on a CM5 chip using standard amine coupling. Antigen-binding constructs were captured on the anti-human Fc (injected at concentration at 0.51 microg/mL in PBST, 1 min at 10 microl/min) at response levels ranging from 120-270 RU. […] HER2 dilutions were analyzed in duplicates. Sensograms were fit globally to a 1: 1 Langmuir binding model, using the software provided with the Biacore T200. All experiments were conducted at 25° C.
(§2) The affinity of antigen-binding constructs in OA format was determined by SPR following protein A purification. […] Antigen-binding constructs in FSA format were purified by protein A affinity and SEC prior to assessment of affinity by SPR.
Take B1: the “Ka, mut/Ka, WT” value was determined as 1.
On the same count and under the same terms, with B2 the figure was 1.7.
On to B3, for which the “Ka, mut/Ka, WT” value was determined as 0.2.
Still for that read-out and setting: with B4 the figure was 0.3.
On the same count and under the same terms, the value for B5 was 1; that for B6 was 0.2.
The same measure, in the same setting: the value for B7 was 1.5; that for B8 was 0.8.
B9: the “Ka, mut/Ka, WT” value worked out at 0.3.
On the same count and under the same terms, the value for B10 was 0.3.
Still for that read-out and setting: with B11 the figure was 0.9.
The same measure, in the same setting: with B12 the figure was 18; with B13, 0.3.
In the case of B14, the “Ka, mut/Ka, WT” value came to 1.3.
The same measure, in the same setting: the value for B15 was 0.5; that for B16 was 1.6; that for B17 was 0.8.
As to B18, the “Ka, mut/Ka, WT” value amounted to 0.2.
Same read-out and setting: with B19 the figure was 1.

The target of another assay is T2, Recombinant human HER2 (human, UniProt P04626 23-652).
T2 construct: extracellular domain; Analyte of the SPR assays; also called HER2 ECD; ECD2 of HER2
The experiment in a line: SPR, 25 C; Ka ratio to WT v10013.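 Also: constructs captured via anti-human Fc on CM5 chip, HER2 ECD as analyte in duplicate dilutions, sensorgrams globally fit to 1:1 Langmuir model on Biacore T200.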
Protocol: as §1
For B20, the “Ka, mut/Ka, WT” value is 13 fold.
Regarding B21, the “Ka, mut/Ka, WT” value was roughly 164 fold.
Same read-out and setting: the value for B22 was roughly 67 fold; that for B23 was 8 fold; that for B24 was roughly 57 fold.
On the same count and under the same terms, the value for B25 was 18 fold; that for B26 was 10 fold; that for B27 was 12 fold.
Same read-out and setting: with B28 the figure was roughly 81 fold; with B29, 12 fold.
In the case of B30, the “Ka, mut/Ka, WT” value is 12 fold.

For the next assay, the target named is T1, Recombinant human HER2. Kind of assay: SPR, variant captured on anti-human Fc, HER2 flowed, 25 C, pre-SEC.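 Also: HER2 extracellular domain binding on Biacore T200, CM5 chip with amine-coupled anti-human Fc, duplicate antigen dilutions, global 1:1 Langmuir fit, measured after protein A purification.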
Protocol: as §1, §2
B1: the Kd is 19 nM.
Same read-out and setting: with B2 the figure was 9.7 nM; with B3, 130 nM.
Same read-out and setting: with B4 the figure was 63 nM; with B5, 20 nM.
Same read-out and setting: the value for B6 was 81 nM; that for B7 was 11 nM; that for B8 was 23 nM.
As to B9, the Kd is 69 nM.
The same measure, in the same setting: with B10 the figure was 75 nM.
Still for that read-out and setting: the value for B11 was 21 nM; that for B12 was 0.94 nM; that for B13 was 57 nM.
The same measure, in the same setting: with B14 the figure was 15 nM; with B15, 40 nM; with B16, 10 nM.
For the molecule B17, the Kd was determined as 26 nM.
The same measure, in the same setting: the value for B18 was 85 nM; that for B19 was 20 nM.

The target of the next assay is T2, Recombinant human HER2. Kind of assay: SPR, Biacore T200, 25 C; variant captured on anti-human Fc, HER2 flowed.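 Also: HER2 extracellular domain analyte run as duplicate dilutions over amine-coupled anti-Fc on a CM5 chip, rates from global sensorgram fitting with a 1:1 Langmuir model.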
Protocol: as §1
On to B20, for which the Kd was determined as 1.3 nM, the dissociation rate constant (koff) turned out to be 8e-05 s⁻¹ and the kon was determined as 63000 M⁻¹ s⁻¹.
The like results for B21 were, in that order, roughly 0.1 nM, roughly 9e-06 s⁻¹ and 88000 M⁻¹ s⁻¹.
The like results for B22 were, in that order, roughly 0.25 nM, roughly 1.7e-05 s⁻¹ and 68000 M⁻¹ s⁻¹.
The like results for B23 were, in that order, 2 nM, 9.9e-05 s⁻¹ and 49000 M⁻¹ s⁻¹.
Regarding B24, the Kd was roughly 0.29 nM, the koff is roughly 2.7e-05 s⁻¹ and the kon is 91000 M⁻¹ s⁻¹.
Take B25: the Kd amounted to 0.91 nM, the koff worked out at 4e-05 s⁻¹ and the kon stood at 44000 M⁻¹ s⁻¹.
For B26, the Kd came to 1.7 nM, the koff worked out at 9.9e-05 s⁻¹ and the on-rate (kon) amounted to 59000 M⁻¹ s⁻¹.
With B27, the Kd amounted to 1.4 nM, the koff was 6.2e-05 s⁻¹ and the kon was 43000 M⁻¹ s⁻¹.
In the same order, the values of B28 are roughly 0.21 nM, roughly 2e-05 s⁻¹ and 95000 M⁻¹ s⁻¹.
In the same order, the values of B29 are 1.5 nM, 8.5e-05 s⁻¹ and 59000 M⁻¹ s⁻¹.
On to B30, for which the dissociation constant (Kd) was 1.4 nM, the koff came to 8.3e-05 s⁻¹ and the kon turned out to be 59000 M⁻¹ s⁻¹.

In another assay the target is T2, Recombinant human HER2. Kind of assay: calculated from the SPR Ka ratio to WT v10013.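 Also: SPR at 25 °C with constructs captured on an anti-human Fc chip and HER2 extracellular domain as analyte, kinetics fitted to a 1:1 Langmuir model.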
Protocol: as §1
For B20, the ΔΔG is -1.5 kcal/mol.
On the same count and under the same terms, the value for B21 was -3 kcal/mol; that for B22 was -2.5 kcal/mol.
On to B23, for which the ΔΔG is -1.2 kcal/mol.
The same measure, in the same setting: the value for B24 was -2.4 kcal/mol.
On the same count and under the same terms, with B25 the figure was -1.7 kcal/mol.
For B26, the ΔΔG is -1.4 kcal/mol.
On the same count and under the same terms, with B27 the figure was -1.5 kcal/mol; with B28, -2.6 kcal/mol; with B29, -1.4 kcal/mol.
On the same count and under the same terms, the value for B30 was -1.5 kcal/mol.

As a reminder, the Kd is the free concentration of one partner at which half of the binding sites on the other are occupied at equilibrium, for simple one-to-one binding. The koff is the first-order rate constant of dissociation. A word on the kon: it is the second-order rate constant of association.
